Data from the supplement of paper PMC9428881.
± gives the standard error.

Assay: background-corrected fluorescence of 3'-dye-labeled ssDNA relative to brightest sequence (3'-GCGCG) (fraction); higher = brighter dye fluorescence (less quenching)
Procedure, shortened: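 Arrays of single-stranded DNA, with a 3' Cy3 or Cy5 dye beside each of 1024 permuted pentamers, were built on glass slides through light-directed phosphoramidite synthesis. They were washed for 2 h at r.t. in acetonitrile and scanned at 532 or 635 nm, once before and once after overnight ethylenediamine/ethanol deprotection. Fluorescence is reported after subtracting unlabeled-oligo background and normalizing to the brightest sequence. Averages cover 10 features per array and at least 3 syntheses.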

Row | Sequence | background-corrected fluorescence (dye: Cy3 (3' terminal)) | background-corrected fluorescence (dye: Cy5 (3' terminal))
1 | TTTTTTGATGAGCAGCATGCTTTTTTTTTTTTTTTCCTTA [ATTCC] | 0.513 ± 0.023 | 0.369 ± 0.029
2 | TTTTTTGATGAGCATCAGCATTTTTTTTTTTTTTTCCTGT [TGTCC] | 0.584 ± 0.0059 | 0.459 ± 0.038
3 | TTTTTTGATGAGCATCATCATTTTTTTTTTTTTTTCCTGG [GGTCC] | 0.557 ± 0.023 | 0.47 ± 0.054
4 | TTTTTTGATGAGCATCATGATTTTTTTTTTTTTTTCCTGC [CGTCC] | 0.485 ± 0.028 | 0.394 ± 0.032
5 | TTTTTTGATGAGCATCATGCTTTTTTTTTTTTTTTCCTGA [AGTCC] | 0.592 ± 0.034 | 0.499 ± 0.086
6 | TTTTTTGATGAGCATGAGCATTTTTTTTTTTTTTTCCTCT [TCTCC] | 0.431 ± 0.012 | 0.312 ± 0.026
7 | TTTTTTGATGAGCATGATCATTTTTTTTTTTTTTTCCTCG [GCTCC] | 0.471 ± 0.02 | 0.393 ± 0.057
8 | TTTTTTGATGAGCATGATGATTTTTTTTTTTTTTTCCTCC | 0.342 ± 0.03 | 0.273 ± 0.021
9 | TTTTTTGATGAGCATGATGCTTTTTTTTTTTTTTTCCTCA [ACTCC] | 0.493 ± 0.0056 | 0.377 ± 0.042
10 | TTTTTTGATGAGCATGCGCATTTTTTTTTTTTTTTCCTAT [TATCC] | 0.486 ± 0.018 | 0.361 ± 0.028
11 | TTTTTTGATGAGCATGCTCATTTTTTTTTTTTTTTCCTAG [GATCC] | 0.532 ± 0.019 | 0.414 ± 0.023
12 | TTTTTTGATGAGCATGCTGATTTTTTTTTTTTTTTCCTAC [CATCC] | 0.45 ± 0.02 | 0.306 ± 0.042
13 | TTTTTTGATGAGCATGCTGCTTTTTTTTTTTTTTTCCTAA [AATCC] | 0.538 ± 0.015 | 0.432 ± 0.031
14 | TTTTTTGATGATCAGCAGCATTTTTTTTTTTTTTTCCGTT [TTGCC] | 0.542 ± 0.036 | 0.446 ± 0.059
15 | TTTTTTGATGATCAGCATCATTTTTTTTTTTTTTTCCGTG [GTGCC] | 0.533 ± 0.0058 | 0.435 ± 0.029
16 | TTTTTTGATGATCAGCATGATTTTTTTTTTTTTTTCCGTC [CTGCC] | 0.442 ± 0.019 | 0.345 ± 0.018
17 | TTTTTTGATGATCAGCATGCTTTTTTTTTTTTTTTCCGTA [ATGCC] | 0.546 ± 0.025 | 0.436 ± 0.028
18 | TTTTTTGATGATCATCAGCATTTTTTTTTTTTTTTCCGGT [TGGCC] | 0.729 ± 0.028 | 0.624 ± 0.064
19 | TTTTTTGATGATCATCATCATTTTTTTTTTTTTTTCCGGG [GGGCC] | 0.731 ± 0.012 | 0.655 ± 0.076
20 | TTTTTTGATGATCATCATGATTTTTTTTTTTTTTTCCGGC [CGGCC] | 0.623 ± 0.025 | 0.511 ± 0.041
21 | TTTTTTGATGATCATCATGCTTTTTTTTTTTTTTTCCGGA [AGGCC] | 0.773 ± 0.024 | 0.714 ± 0.045
22 | TTTTTTGATGATCATGAGCATTTTTTTTTTTTTTTCCGCT [TCGCC] | 0.579 ± 0.035 | 0.428 ± 0.034
23 | TTTTTTGATGATCATGATCATTTTTTTTTTTTTTTCCGCG [GCGCC] | 0.961 ± 0.026 | 0.944 ± 0.034

Row | Sequence | background-corrected fluorescence (dye: Cy3 (3' terminal)) | background-corrected fluorescence (dye: Cy5 (3' terminal))
24 | TTTTTTGATGATCATGATGATTTTTTTTTTTTTTTCCGCC | 0.445 ± 0.024 | 0.33 ± 0.022
25 | TTTTTTGATGATCATGATGCTTTTTTTTTTTTTTTCCGCA [ACGCC] | 0.539 ± 0.034 | 0.475 ± 0.024
26 | TTTTTTGATGATCATGCGCATTTTTTTTTTTTTTTCCGAT [TAGCC] | 0.603 ± 0.04 | 0.435 ± 0.022
27 | TTTTTTGATGATCATGCTCATTTTTTTTTTTTTTTCCGAG [GAGCC] | 0.593 ± 0.015 | 0.501 ± 0.072
28 | TTTTTTGATGATCATGCTGATTTTTTTTTTTTTTTCCGAC [CAGCC] | 0.464 ± 0.024 | 0.374 ± 0.068
29 | TTTTTTGATGATCATGCTGCTTTTTTTTTTTTTTTCCGAA [AAGCC] | 0.647 ± 0.047 | 0.49 ± 0.031
30 | TTTTTTGATGATGAGCAGCATTTTTTTTTTTTTTTCCCTT | 0.452 ± 0.011 | 0.359 ± 0.025
31 | TTTTTTGATGATGAGCATCATTTTTTTTTTTTTTTCCCTG [GTCCC] | 0.528 ± 0.048 | 0.364 ± 0.024
32 | TTTTTTGATGATGAGCATGATTTTTTTTTTTTTTTCCCTC [CTCCC] | 0.346 ± 0.012 | 0.26 ± 0.019
33 | TTTTTTGATGATGAGCATGCTTTTTTTTTTTTTTTCCCTA [ATCCC] | 0.458 ± 0.025 | 0.35 ± 0.019
34 | TTTTTTGATGATGATCAGCATTTTTTTTTTTTTTTCCCGT [TGCCC] | 0.585 ± 0.034 | 0.48 ± 0.021
35 | TTTTTTGATGATGATCATCATTTTTTTTTTTTTTTCCCGG [GGCCC] | 0.625 ± 0.027 | 0.562 ± 0.072
36 | TTTTTTGATGATGATCATGATTTTTTTTTTTTTTTCCCGC [CGCCC] | 0.51 ± 0.013 | 0.419 ± 0.034
37 | TTTTTTGATGATGATCATGCTTTTTTTTTTTTTTTCCCGA [AGCCC] | 0.629 ± 0.051 | 0.554 ± 0.034
38 | TTTTTTGATGATGATGAGCATTTTTTTTTTTTTTTCCCCT | 0.438 ± 0.024 | 0.312 ± 0.016
39 | TTTTTTGATGATGATGATCATTTTTTTTTTTTTTTCCCCG [GCCCC] | 0.471 ± 0.035 | 0.377 ± 0.026
40 | TTTTTTGATGATGATGATGATTTTTTTTTTTTTTTCCCCC | 0.369 ± 0.018 | 0.251 ± 0.018
41 | TTTTTTGATGATGATGATGCTTTTTTTTTTTTTTTCCCCA [ACCCC] | 0.423 ± 0.023 | 0.352 ± 0.021
42 | TTTTTTGATGATGATGCGCATTTTTTTTTTTTTTTCCCAT [TACCC] | 0.49 ± 0.03 | 0.356 ± 0.015
43 | TTTTTTGATGATGATGCTCATTTTTTTTTTTTTTTCCCAG [GACCC] | 0.504 ± 0.0073 | 0.374 ± 0.025
44 | TTTTTTGATGATGATGCTGATTTTTTTTTTTTTTTCCCAC [CACCC] | 0.373 ± 0.022 | 0.294 ± 0.044
45 | TTTTTTGATGATGATGCTGCTTTTTTTTTTTTTTTCCCAA [AACCC] | 0.485 ± 0.031 | 0.386 ± 0.022
46 | TTTTTTGATGATGCGCAGCATTTTTTTTTTTTTTTCCATT [TTACC] | 0.541 ± 0.041 | 0.357 ± 0.02

Row | Sequence | background-corrected fluorescence (dye: Cy3 (3' terminal)) | background-corrected fluorescence (dye: Cy5 (3' terminal))
47 | TTTTTTGATGATGCGCATCATTTTTTTTTTTTTTTCCATG [GTACC] | 0.542 ± 0.026 | 0.361 ± 0.035
48 | TTTTTTGATGATGCGCATGATTTTTTTTTTTTTTTCCATC [CTACC] | 0.387 ± 0.081 | 0.281 ± 0.02
49 | TTTTTTGATGATGCGCATGCTTTTTTTTTTTTTTTCCATA [ATACC] | 0.488 ± 0.015 | 0.38 ± 0.033
50 | TTTTTTGATGATGCTCAGCATTTTTTTTTTTTTTTCCAGT [TGACC] | 0.615 ± 0.023 | 0.458 ± 0.021
51 | TTTTTTGATGATGCTCATCATTTTTTTTTTTTTTTCCAGG [GGACC] | 0.642 ± 0.016 | 0.511 ± 0.057
52 | TTTTTTGATGATGCTCATGATTTTTTTTTTTTTTTCCAGC [CGACC] | 0.503 ± 0.036 | 0.395 ± 0.02
53 | TTTTTTGATGATGCTCATGCTTTTTTTTTTTTTTTCCAGA [AGACC] | 0.635 ± 0.027 | 0.527 ± 0.028
54 | TTTTTTGATGATGCTGAGCATTTTTTTTTTTTTTTCCACT [TCACC] | 0.444 ± 0.029 | 0.322 ± 0.023
55 | TTTTTTGATGATGCTGATCATTTTTTTTTTTTTTTCCACG [GCACC] | 0.513 ± 0.025 | 0.386 ± 0.021
56 | TTTTTTGATGATGCTGATGATTTTTTTTTTTTTTTCCACC | 0.378 ± 0.0043 | 0.275 ± 0.026
57 | TTTTTTGATGATGCTGATGCTTTTTTTTTTTTTTTCCACA [ACACC] | 0.472 ± 0.027 | 0.375 ± 0.055
58 | TTTTTTGATGATGCTGCGCATTTTTTTTTTTTTTTCCAAT [TAACC] | 0.527 ± 0.017 | 0.394 ± 0.022
59 | TTTTTTGATGATGCTGCTCATTTTTTTTTTTTTTTCCAAG [GAACC] | 0.521 ± 0.029 | 0.384 ± 0.029
60 | TTTTTTGATGATGCTGCTGATTTTTTTTTTTTTTTCCAAC [CAACC] | 0.403 ± 0.021 | 0.291 ± 0.02
61 | TTTTTTGATGATGCTGCTGCTTTTTTTTTTTTTTTCCAAA [AAACC] | 0.559 ± 0.025 | 0.445 ± 0.051
62 | TTTTTTGATGCGCAGCAGCATTTTTTTTTTTTTTTCATTT [TTTAC] | 0.523 ± 0.022 | 0.38 ± 0.032
63 | TTTTTTGATGCGCAGCATCATTTTTTTTTTTTTTTCATTG [GTTAC] | 0.561 ± 0.029 | 0.363 ± 0.021
64 | TTTTTTGATGCGCAGCATGATTTTTTTTTTTTTTTCATTC [CTTAC] | 0.398 ± 0.017 | 0.297 ± 0.021
65 | TTTTTTGATGCGCAGCATGCTTTTTTTTTTTTTTTCATTA [ATTAC] | 0.554 ± 0.021 | 0.398 ± 0.027
66 | TTTTTTGATGCGCATCAGCATTTTTTTTTTTTTTTCATGT [TGTAC] | 0.615 ± 0.028 | 0.464 ± 0.032
67 | TTTTTTGATGCGCATCATCATTTTTTTTTTTTTTTCATGG [GGTAC] | 0.6391 ± 0.0053 | 0.521 ± 0.075
68 | TTTTTTGATGCGCATCATGATTTTTTTTTTTTTTTCATGC [CGTAC] | 0.536 ± 0.028 | 0.395 ± 0.026
